Laboratory results reported in publication PMC11473951.

Key:
Test in all cases: SPR
[1] = target: human monoclonal antibody R5.016 (human)
[2] = target: human monoclonal antibody R5.034 (human)
[3] = target: monoclonal antibody 9AD4 (mouse)
Chain of monoclonal antibody 9AD4 (mouse) (light, as listed by the source, chain 2 of 2, other chains not shown): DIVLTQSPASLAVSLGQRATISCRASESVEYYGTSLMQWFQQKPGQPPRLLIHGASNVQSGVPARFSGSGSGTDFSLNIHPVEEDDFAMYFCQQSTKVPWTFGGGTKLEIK

Chain of human monoclonal antibody R5.016 (human) (heavy, as listed by the source, chain 1 of 2): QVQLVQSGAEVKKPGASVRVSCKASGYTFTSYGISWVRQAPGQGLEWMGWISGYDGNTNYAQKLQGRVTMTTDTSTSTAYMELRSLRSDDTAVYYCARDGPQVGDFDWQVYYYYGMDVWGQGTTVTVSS
Chain of human monoclonal antibody R5.016 (human) (light, as listed by the source, chain 2 of 2): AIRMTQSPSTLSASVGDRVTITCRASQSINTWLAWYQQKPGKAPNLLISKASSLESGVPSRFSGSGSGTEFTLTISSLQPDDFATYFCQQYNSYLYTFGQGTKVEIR
Chain of human monoclonal antibody R5.034 (human) (heavy, as listed by the source, chain 1 of 2): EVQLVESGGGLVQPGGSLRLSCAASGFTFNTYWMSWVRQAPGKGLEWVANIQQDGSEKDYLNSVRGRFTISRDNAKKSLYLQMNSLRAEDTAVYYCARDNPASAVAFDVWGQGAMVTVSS
Chain of human monoclonal antibody R5.034 (human) (light, as listed by the source, chain 2 of 2): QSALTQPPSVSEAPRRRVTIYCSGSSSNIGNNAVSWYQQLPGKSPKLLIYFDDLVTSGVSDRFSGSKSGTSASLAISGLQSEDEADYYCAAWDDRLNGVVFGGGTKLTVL

PfRH5 (from UniProt Q8IFM5 25-526) (natural protein)
Kd [1]: 2.4 nM | Kd [2]: 0.094 nM | Kd [3]: 1.6 nM
